Laboratory results reported in EP4137518A1 (Inhibrx, Inc., dated 2023).

B1: 9E4 antibody (murine) (antibody, mouse IgG1, V domains shown)
VH: EVQLRQSGPELVKPGASVKISCKASGYSFTDYYMYWVKQSRVRSLAWIGRINPYTGATGYDQNFKDKASLIVDKSSSTAYMELRSLTSEDSAVYYCARGRNRYDGWFAYWGQGTLVTV
VL: EIQMTQTTSSLSASLGDRVTISCRASQDISNYLNWYQQKPDGTVKLLIYYTSRLHSGVPSRFSGSGSGTDYSLTISNLDQEDIATYFCQQGNALPPTFGGGTNLEIK
B2: B6H12 (antibody, V domains shown)
VH: EVQLVESGGDLVKPGGSLKLSCAASGFTFSGYGMSWVRQTPDKRLEWVATITSGGTYTYYPDSVKGRFTISRDNAKNTLYLQIDSLKSEDTAIYFCARSLAGNAMDYWGQGTSVTVSS
VL: DIVMTQSPATLSVTPGDRVSLSCRASQTISDYLHWYQQKSHESPRLLIKFASQSISGIPSRFSGSGSGSDFTLSINSVEPEDVGVYYCQNGHGFPRTFGGGTKLEIK

Legend:
[1] = target: T1, human CD47, cell surface (Raji, CCRF-CEM, Daudi cells) (human, UniProt Q08722 19-323); test: summary of the binding and blocking assays
T1 construct: Endogenous CD47 on human cell lines; also called cell surface CD47; endogenous (cell surface) form of CD47

[2] = target: T1, human CD47, cell surface (Raji, …); test: flow cytometry on Raji cells; apparent KD from non-linear fit of median fluorescence intensities

| Binder | binding result [1] | Kd [2] |
| --- | --- | --- |
| B1 | binds |  |
| B2 |  | 3.79 nM |
